Source: IntAct's records for PubMed 31515488

B1: E3 ubiquitin-protein ligase Midline-1 (Homo sapiens), O15344 (parent)
chain: METLESELTCPICLELFEDPLLLPCAHSLCFNCAHRILVSHCATNESVESITAFQCPTCRHVITLSQRGLDGLKRNVTLQNIIDRFQKASVSGPNSPSETRRERAFDANTMTSAEKVLCQFCDQDPAQDAVKTCVTCEVSYCDECLKATHPNKKPFTGHRLIEPIPDSHIRGLMCLEHEDEKVNMYCVTDDQLICALCKLVGRHRDHQVAALSERYDKLKQNLESNLTNLIKRNTELETLLAKLIQTCQHVEVNASRQEAKLTEECDLLIEIIQQRRQIIGTKIKEGKVMRLRKLAQQIANCKQCIERSASLISQAEHSLKENDHARFLQTAKNITERVSMATASSQVLIPEINLNDTFDTFALDFSREKKLLECLDYLTAPNPPTIREELCTASYDTITVHWTSDDEFSVVSYELQYTIFTGQANVVSLCNSADSWMIVPNIKQNHYTVHGLQSGTKYIFMVKAINQAGSRSSEPGKLKTNSQPFKLDPKSAHRKLKVSHDNLTVERDESSSKKSHTPERFTSQGSYGVAGNVFIDSGRHYWEVVISGSTWYAIGLAYKSAPKHEWIGKNSASWALCRCNNNWVVRHNSKEIPIEPAPHLRRVGILLDYDNGSIAFYDALNSIHLYTFDVAFAQPVCPTFTVWNKCLTIITGLPIPDHLDCTEQLP
B2: Pachytene checkpoint protein 2 homolog (Homo sapiens), Q15645 (parent)
chain: MDEAVGDLKQALPCVAESPTVHVEVHQRGSSTAKKEDINLSVRKLLNRHNIVFGDYTWTEFDEPFLTRNVQSVSIIDTELKVKDSQPIDLSACTVALHIFQLNEDGPSSENLEEETENIIAANHWVLPAAEFHGLWDSLVYDVEVKSHLLDYVMTTLLFSDKNVNSNLITWNRVVLLHGPPGTGKTSLCKALAQKLTIRLSSRYRYGQLIEINSHSLFSKWFSESGKLVTKMFQKIQDLIDDKDALVFVLIDEVESLTAARNACRAGTEPSDAIRVVNAVLTQIDQIKRHSNVVILTTSNITEKIDVAFVDRADIKQYIGPPSAAAIFKIYLSCLEELMKCQIIYPRQQLLTLRELEMIGFIENNVSKLSLLLNDISRKSEGLSGRVLRKLPFLAHALYVQAPTVTIEGFLQALSLAVDKQFEERKKLAAYI
B3: Protein LDOC1 (Homo sapiens), O95751 (parent)
chain: MVDELVLLLHALLMRHRALSIENSQLMEQLRLLVCERASLLRQVRPPSCPVPFPETFNGESSRLPEFIVQTASYMLVNENRFCNDAMKVAFLISLLTGEAEEWVVPYIEMDSPILGDYRAFLDEMKQCFGWDDDEDDDDEEEEDDY
partner: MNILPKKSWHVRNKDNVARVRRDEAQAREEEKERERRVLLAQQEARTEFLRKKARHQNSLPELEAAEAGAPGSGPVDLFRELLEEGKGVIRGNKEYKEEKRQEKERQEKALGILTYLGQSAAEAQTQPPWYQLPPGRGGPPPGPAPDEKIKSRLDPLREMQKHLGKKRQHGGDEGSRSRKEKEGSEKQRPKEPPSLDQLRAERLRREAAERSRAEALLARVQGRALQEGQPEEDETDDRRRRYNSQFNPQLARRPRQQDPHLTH
B4: Microtubule-associated tumor suppressor candidate 2 (Homo sapiens), Q5JR59-3 (parent)
chain: MGHCCCKPYNCLQCLDKTNESALVKEKELSIELANIRDEVAFHTAKCEKLQKEKEELERRFEDEVKRLGWQQQAELQELEERLQLQFEAEMARLQEEHGDQLLSIRCQHQEQVEDLTASHDAALLEMENNHTVAITILQDDHDHKVQELMSTHELEKKELEENFEKLRLSLQDQVDTLTFQSQSLRDRARRFEEALRKNTEEQLEIALAPYQHLEEDMKSLKQVLEMKNQQIHEQEKKILELEKLAEKNIILEEKIQVLQQQNEDLKARIDQNTVVTRQLSEENANLQEYVEKETQEKKRLSRTNEELLWKLQTGDPTSPIKLSPTSPVYRGSSSGPSSPARVSTTPR
partner: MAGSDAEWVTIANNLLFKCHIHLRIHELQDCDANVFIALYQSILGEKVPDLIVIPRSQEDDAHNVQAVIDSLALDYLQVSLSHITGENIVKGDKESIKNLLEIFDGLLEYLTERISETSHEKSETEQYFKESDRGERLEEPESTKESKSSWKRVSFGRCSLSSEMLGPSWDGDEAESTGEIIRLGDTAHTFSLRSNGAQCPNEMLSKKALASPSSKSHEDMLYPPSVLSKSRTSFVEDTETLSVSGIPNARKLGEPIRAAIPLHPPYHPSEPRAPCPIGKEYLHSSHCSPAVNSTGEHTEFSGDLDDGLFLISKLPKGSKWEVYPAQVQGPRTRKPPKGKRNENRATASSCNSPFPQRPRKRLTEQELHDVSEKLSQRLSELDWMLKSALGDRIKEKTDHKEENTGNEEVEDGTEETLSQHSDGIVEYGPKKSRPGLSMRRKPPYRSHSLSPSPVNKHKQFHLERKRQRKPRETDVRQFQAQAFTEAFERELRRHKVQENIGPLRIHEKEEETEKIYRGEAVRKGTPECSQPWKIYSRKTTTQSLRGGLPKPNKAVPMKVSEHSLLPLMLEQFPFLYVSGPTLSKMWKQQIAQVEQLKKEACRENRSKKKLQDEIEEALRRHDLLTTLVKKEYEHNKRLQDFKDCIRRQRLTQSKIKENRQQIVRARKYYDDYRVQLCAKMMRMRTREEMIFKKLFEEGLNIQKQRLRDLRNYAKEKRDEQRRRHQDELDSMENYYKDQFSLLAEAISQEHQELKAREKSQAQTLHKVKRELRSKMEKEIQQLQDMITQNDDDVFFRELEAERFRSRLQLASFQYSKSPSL
B5: Nucleoporin p54 (Homo sapiens), Q7Z3B4 (parent)
chain: MAFNFGAPSGTSGTAAATAAPAGGFGGFGTTSTTAGSAFSFSAPTNTGTTGLFGGTQNKGFGFGTGFGTTTGTSTGLGTGLGTGLGFGGFNTQQQQQTTLGGLFSQPTQAPTQSNQLINTASALSAPTLLGDERDAILAKWNQLQAFWGTGKGYFNNNIPPVEFTQENPFCRFKAVGYSCMPSNKDEDGLVVLVFNKKETEIRSQQQQLVESLHKVLGGNQTLTVNVEGTKTLPDDQTEVVIYVVERSPNGTSRRVPATTLYAHFEQANIKTQLQQLGVTLSMTRTELSPAQIKQLLQNPPAGVDPIIWEQAKVDNPDSEKLIPVPMVGFKELLRRLKVQDQMTKQHQTRLDIISEDISELQKNQTTSVAKIAQYKRKLMDLSHRTLQVLIKQEIQRKSGYAIQADEEQLRVQLDTIQGELNAPTQFKGRLNELMSQIRMQNHFGAVRSEERYYIDADLLREIKQHLKQQQEGLSHLISIIKDDLEDIKLVEHGLNETIHIRGGVFS
partner: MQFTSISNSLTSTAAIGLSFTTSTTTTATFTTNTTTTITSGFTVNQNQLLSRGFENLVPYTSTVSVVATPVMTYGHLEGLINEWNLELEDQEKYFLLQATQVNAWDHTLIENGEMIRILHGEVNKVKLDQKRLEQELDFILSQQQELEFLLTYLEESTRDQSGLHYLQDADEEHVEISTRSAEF
B6: Tuftelin-interacting protein 11 (Homo sapiens), Q9UBB9 (parent)
chain: MSLSHLYRDGEGRIDDDDDERENFEITDWDLQNEFNPNRQRHWQTKEEATYGVWAERDSDDERPSFGGKRARDYSAPVNFISAGLKKGAAEEAELEDSDDEEKPVKQDDFPKDFGPRKLKTGGNFKPSQKGFAGGTKSFMDFGSWERHTKGIGQKLLQKMGYVPGRGLGKNAQGIINPIEAKQRKGKGAVGAYGSERTTQSMQDFPVVDSEEEAEEEFQKELSQWRKDPSGSKKKPKYSYKTVEELKAKGRISKKLTAPQKELSQVKVIDMTGREQKVYYSYSQISHKHNVPDDGLPLQSQQLPQSGKEAKAPGFALPELEHNLQLLIDLTEQEIIQNDRQLQYERDMVVNLFHELEKMTEVLDHEERVISNLSKVLEMVEECERRMQPDCSNPLTLDECARIFETLQDKYYEEYRMSDRVDLAVAIVYPLMKEYFKEWDPLKDCTYGTEIISKWKSLLENDQLLSHGGQDLSADAFHRLIWEVWMPFVRNIVTQWQPRNCDPMVDFLDSWVHIIPVWILDNILDQLIFPKLQKEVENWNPLTDTVPIHSWIHPWLPLMQARLEPLYSPIRSKLSSALQKWHPSDSSAKLILQPWKDVFTPGSWEAFMVKNIVPKLGMCLGELVINPHQQHMDAFYWVIDWEGMISVSSLVGLLEKHFFPKWLQVLCSWLSNSPNYEEITKWYLGWKSMFSDQVLAHPSVKDKFNEALDIMNRAVSSNVGAYMQPGARENIAYLTHTERRKDFQYEAMQERREAENMAQRGIGVAASSVPMNFKDLIETKAEEHNIVFMPVIGKRHEGKQLYTFGRIVIYIDRGVVFVQGEKTWVPTSLQSLIDMAK
partner: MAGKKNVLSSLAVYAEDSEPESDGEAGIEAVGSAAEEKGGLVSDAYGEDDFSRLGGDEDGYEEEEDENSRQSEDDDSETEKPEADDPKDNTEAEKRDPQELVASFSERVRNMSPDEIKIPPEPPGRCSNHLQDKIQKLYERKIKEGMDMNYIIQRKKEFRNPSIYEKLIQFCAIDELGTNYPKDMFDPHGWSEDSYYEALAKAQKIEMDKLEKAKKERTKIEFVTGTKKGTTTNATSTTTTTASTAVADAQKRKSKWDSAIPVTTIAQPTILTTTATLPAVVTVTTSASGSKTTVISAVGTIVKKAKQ

Variants of: B1
Conditions: with meox1_human MEOX1, P50221
Sequence of meox1_human MEOX1, P50221 (P50221 whole entry): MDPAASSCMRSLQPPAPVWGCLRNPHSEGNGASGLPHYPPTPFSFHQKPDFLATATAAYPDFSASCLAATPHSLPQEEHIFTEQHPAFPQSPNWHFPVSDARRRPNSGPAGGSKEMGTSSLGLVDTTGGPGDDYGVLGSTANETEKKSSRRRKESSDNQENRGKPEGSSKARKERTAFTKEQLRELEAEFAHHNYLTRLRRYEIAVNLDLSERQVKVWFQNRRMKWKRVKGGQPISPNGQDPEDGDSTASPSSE

effect of a mutation on the interaction | Variant
with no effect | D84N

Variants of: B1
Conditions: with echp_human EHHADH

effect of a mutation on the interaction | Variant
with no effect | D84N

Variants of: B1
Conditions: with ub2d3_human UBE2D3, P61077
Sequence of ub2d3_human UBE2D3, P61077 (P61077 whole entry): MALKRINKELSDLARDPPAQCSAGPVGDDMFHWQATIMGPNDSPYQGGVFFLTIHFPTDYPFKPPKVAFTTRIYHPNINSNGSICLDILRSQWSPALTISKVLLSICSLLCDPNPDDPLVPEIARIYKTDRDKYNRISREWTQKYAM

effect of a mutation on the interaction | Variant
with no effect | D84N

Variants of: B1
Conditions: with ub2e2_human UBE2E2, Q96LR5
Sequence of ub2e2_human UBE2E2, Q96LR5 (Q96LR5 whole entry): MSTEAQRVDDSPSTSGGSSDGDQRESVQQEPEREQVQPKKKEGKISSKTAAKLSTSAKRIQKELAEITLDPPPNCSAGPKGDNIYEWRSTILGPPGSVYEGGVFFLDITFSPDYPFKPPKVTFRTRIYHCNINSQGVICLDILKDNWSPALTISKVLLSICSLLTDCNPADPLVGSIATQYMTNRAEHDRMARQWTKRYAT

effect of a mutation on the interaction | Variant
with no effect | D84N

Variants of: B2
Conditions: with meak7_human MEAK7, Q6P9B6
Sequence of meak7_human MEAK7, Q6P9B6 (Q6P9B6 whole entry): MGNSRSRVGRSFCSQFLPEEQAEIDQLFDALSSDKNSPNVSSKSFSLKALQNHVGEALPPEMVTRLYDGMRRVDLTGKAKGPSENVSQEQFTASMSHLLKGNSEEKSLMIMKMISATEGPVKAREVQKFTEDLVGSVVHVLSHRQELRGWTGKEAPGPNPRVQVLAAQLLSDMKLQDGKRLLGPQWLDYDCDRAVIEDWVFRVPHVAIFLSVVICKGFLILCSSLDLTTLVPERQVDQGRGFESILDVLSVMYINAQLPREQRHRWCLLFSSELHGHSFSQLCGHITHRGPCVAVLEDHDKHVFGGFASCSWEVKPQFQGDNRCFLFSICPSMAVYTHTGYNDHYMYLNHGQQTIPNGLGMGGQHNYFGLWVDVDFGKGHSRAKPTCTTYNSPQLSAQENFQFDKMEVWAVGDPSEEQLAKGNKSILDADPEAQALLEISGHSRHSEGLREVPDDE

effect of a mutation on the interaction | Variant
with no effect | G409E

Variants of: B2
Conditions: with fnd3b_human FNDC3B

effect of a mutation on the interaction | Variant
with no effect | G409E

Variants of: B3
Conditions: with leng1_human LENG1, Q96BZ8

effect of a mutation on the interaction | Variant
disrupting interaction strength | L12H

Variants of: B4
Conditions: with cep95_human CEP95, Q96GE4

effect of a mutation on the interaction | Variant
with no effect | A89V

Variants of: B5
Conditions: with NUP62CL

effect of a mutation on the interaction | Variant
with no effect | R385K
with no effect | N250S

Variants of: B5
Conditions: with NUP62CL
Remark: another data set of the same source

effect of a mutation on the interaction | Variant
with no effect | T416A

Variants of: B6
Conditions: with SAP30BP

effect of a mutation on the interaction | Variant
with no effect | R8Q
with no effect | S688L
